Source: the supplement of paper PMC12042874
± gives the uncertainty stated by the source.

Experiment: amyloid nucleation score (Sup35N fusion, yeast selection) (log enrichment); library NNK1; higher = more nucleation; inactive = no reads after selection
Method in brief: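 Output and input plasmid inserts were sequenced by Illumina after psi-negative yeast carrying Sup35N fused to peptides of 20 random codons had been induced 24 hours with 100 μM copper sulfate and grown 7 days at 30°C on medium lacking adenine and uracil. The nucleation score is the DiMSum log enrichment of output over input reads, centred on the mode score of non-aggregating sequences. Sequences with under 100 input reads were excluded.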

| Substance | amyloid nucleation score |
| --- | --- |
| ILSEPNELTGACLAS | 0.29 ± 0.78 |
| ILSPRVPINRICAVEQRRGI | -0.952 ± 0.83 |
| ILVTLHMTCLRRSRNTLSFY | -0.45 ± 1.5 |
| ILWLVMWVWTSRFVRCRRHS | -1.94 ± 2.4 |
| ILYNA | -0.166 ± 1.2 |
| ILYVVWFYVLLRWVRVLLLR | 0.884 ± 0.49 |
| IMAGP | -0.624 ± 0.58 |
| IMDSSMGGSSKMYKVVANDL | 0.311 ± 0.64 |
| IMKRCCGESMMPDAGWSGSA | -0.401 ± 1 |
| IMMSYRFHFNNSERIRGCVR | -0.321 ± 0.26 |
| INAQAVIGNFRGRYSVYNVH | 4.23 ± 0.065 |
| INDCYFMWGNLFCYVCVMLL | 1.66 ± 0.46 |
| INDSRFVAYTCLRVTEKYGL | 0.855 ± 0.22 |
| INFQNDELWVLETIGFHTYP | -0.256 ± 0.49 |
| INIAMVMPLDGKLIQIDDTC | 0.177 ± 0.31 |
| INRSSVESLVLTDLKHWTSG | 0.504 ± 0.49 |
| INTSYIEEHYELVGFVHWNV | -0.449 ± 0.79 |
| INWRN | -0.471 ± 0.34 |
| IPGTPMT | inactive |
| IPKVIGWFTVVTTGVVVDIS | 1.27 ± 0.7 |
| IQRKSITTWSPH | 3.43 ± 0.2 |
| IQSRDGVSYKQDVWTLGCVL | 0.658 ± 0.55 |

| Substance | amyloid nucleation score |
| --- | --- |
| IRANLEDVLHIFIPVEGHSR | -0.655 ± 1.1 |
| IRCLSMIWVTKDVLIIWRSQ | 0.159 ± 0.93 |
| IRGLRVLHSVFLALLVCKNL | -0.136 ± 0.59 |
| IRGNVKETVIFFKTRFAFCW | 0.147 ± 0.73 |
| IRPNMRAVKIEVQDVGSQCV | 0.428 ± 0.6 |
| IRQQKGFGCNAFWMVLG | 0.83 ± 0.78 |
| IRRATF | 0.421 ± 0.84 |
| IRRYPAFFFNVYPSTSMFCS | -1.21 ± 0.88 |
| IRSLLYYLFGFLMFWVIRIW | 0.226 ± 0.66 |
| IRTCLVSIVATRCKVGVESP | 0.403 ± 0.34 |
| IRWRSSFVQSMMVTHQHQSF | 1.85 ± 0.16 |
| IRYQFVWSMSLCGLEMHWSS | 2.55 ± 0.21 |
| ISCGCMRVLTRDNLFLKFRF | 0.12 ± 0.58 |
| ISDFAYWQILCRVSDIFKVQ | 2.31 ± 0.13 |
| ISGFGVIVWGVVSWVWYGTN | -0.268 ± 0.7 |
| ISHLDG | -1.04 ± 2.4 |
| ISHSIAVRNNLLLFGPCQNR | 2.12 ± 0.12 |
| ISINHVTCRLVFETGKWRWG | 3.45 ± 0.086 |
| ISLCCTSTYLTVSYGTDRS | 6.487 ± 0.061 |
| ISLLGIWV | 0.939 ± 0.31 |
| ISLRGRCITSKGSSYYAIKY | inactive |
| ISLSSGLALKPS | 1.41 ± 0.48 |

| Substance | amyloid nucleation score |
| --- | --- |
| ISLWLFVFCCHIISISKWLL | inactive |
| ISMGWWIDYGPY | -0.724 ± 0.81 |
| ISNIF | 1.67 ± 0.45 |
| ISNMETGHLEYSLRLAPKYC | -0.658 ± 0.82 |
| ISQYILSHLCQFIVSIGLAT | -0.454 ± 0.88 |
| ISRDNNQTGLMGGLERRTES | 0.533 ± 0.65 |
| ISRGDVGVKESSGCNCVLPH | -0.587 ± 1.3 |
| ISRGYHRYLFSKSNECGRLN | inactive |
| ISRSNTLYAIFCARPAKVSL | -0.235 ± 0.6 |
| ISRVIFLR | 1.41 ± 0.78 |
| ISTAVAIAGQQARNWGAHLR | -0.196 ± 0.46 |
| ISTFLRFSQSDEQYYPTE | 0.496 ± 0.48 |
| ISWRNYWY | 1.01 ± 0.22 |
| ISWVSPDLVLSYPVYQPDGL | 1.93 ± 0.23 |
| ITGFAPVRVVCEYLS | 0.182 ± 0.6 |
| ITMSYMSAKCVNWVVWACRL | 0.286 ± 0.31 |
| ITMVISLCALFMSRSIIFKG | -0.154 ± 1 |
| ITMYANMNSGQFTMLESMPD | -0.303 ± 0.26 |
| ITVLSS | 1.47 ± 0.46 |
| ITVRAISMWWRDSS | 0.263 ± 0.4 |
| IVDSHVSIATYRLEELRRTL | 2.11 ± 0.27 |
| IVFFWMMLVGLNRLGVNRVG | -0.846 ± 1.7 |

| Substance | amyloid nucleation score |
| --- | --- |
| IVGSVVRGMGLVIIRSTCFW | 3.15 ± 0.18 |
| IVKGLSCKIDWLCASMHWMR | 0.053 ± 0.36 |
| IVNRHEL | 0.63 ± 0.9 |
| IVRDFMVLINR | -0.911 ± 1.3 |
| IVRIESVEFSDYADFAFEVR | 0.67 ± 0.59 |
| IVRQYANLGRCCRTGVVYFQ | 0.386 ± 0.63 |
| IVSNDKWHMWLNRL | -0.022 ± 0.24 |
| IVVGRGKQAIASMG | -0.432 ± 0.89 |
| IVVNLGWFQIGIYLPARSDT | -1.24 ± 1.9 |
| IVYSLLYVRMSSNSMWVSV | 0.958 ± 0.9 |
| IWDCLFPSSSAMSYPVDPKA | 0.547 ± 0.42 |
| IWGNVSLIRGFCPVKLWSQR | -0.082 ± 0.46 |
| IWLSLYIAFYGCLHGWFPSQ | 0.645 ± 0.6 |
| IWRLWWAKGPGSRLLRCRLY | -0.167 ± 0.42 |
| IWTKSCDCVCSCGGYQGCYR | -0.038 ± 0.19 |
| IWTNTLNFTARFANVLAGTG | -0.705 ± 1.2 |
| IWVFMVVIMC | 1.07 ± 0.79 |
| IWYRQVCANLLSN | inactive |
| IYFLR | -0.103 ± 0.42 |
| IYFVIGYVNVCWGSATEDMT | 5.46 ± 0.084 |
| IYGELLHLWLISEFCDVRNC | 0.788 ± 0.79 |
